According to the DeepSol protein solubility set:

Assay: soluble on expression in E. coli; label from the status in PepcDB or PDB records

Sequence | soluble on expression in E. coli
MSLEQTVDIEVQGIRGFRAVRNTDLNVNLINKEEMDGSERYQHLVTKAVDRGLRVFGYYESSVRFERKQRQGKRDLLIAHVTPGEPTKIAGTDVQIEGEAAQDENFNALRKNLPKDGVLVEHQTYDDYKTAISRLALNRGYFDGNFKISRLEISPETHQAWWRMLFDSGVRYHYGNITFSHSQIRDDYLNNILNIKSGDPYLMNNLSDLTSDFPSSNWFSSVLVQPNVNHKSKTVDVEIILYPRKKNAMELGVGFSTDGGVHGQIGWTKPWINSRGHSLRSNLYLSAPKQTLEATYRMPLLKNPLNYYYDFAVGWEGEKENDTNTRVLTLSALRYWNNAHGWQYFGGLRMRYDSFTQADITDKTLLLYPTVGFTRTRLRGGSFATWGDVQKITFDLSKRIWLSESSFIKVQASSAWVRTYAENHRVVARAEIGYLHTKGIEKIPPTLRFFAGGDRSVRGYGYKKIAPKNRNGKLVGGSRLLTTSLEYQYQVYPNWWAATFADSGLAADNYTAKELRYGTGVGVRWASPVGAIKFDIATPIRDKDNSKNIQFYIGLGTEIEGHHHHHH | not soluble
MAGDPMYRVGIDVGGTNTDAVVLQDKTVLAGVKASTTEDVTSGVIEALEKVIDASGIDRARIGAVMIGTTHFTNAVIERRHMDEVAAIRIGLPSGAGLPPMVDWPDDLKEIVGNHGYQVRGGYEFDGREISPLDEDEIVRIAADIRAKALKAAAVTCVFSGINDAMEVRAKEILQDRCPGLPVVMSKDIGRHGLLARESAAIMNASLLSLADRTVAAFGEALKAAGITCPFYITQNDGTLMAADVVRGFPVLTFASGPTNSMRGAAFLTGLKDAVVVDVGGTTSDVGSLSHGFPRQASTTVDIGGVRTNFRMPDVFSIGLGGGSMVVNGDHGLTVGPKSVGYRVRRDALCFGGSTLTATDIAVASGKADVGEKALVSSLDKRLVDAAVNKINDMLEACVERSRISSSPVPVIAVGGGSILMPDRIGNLDVIRPENFAVANAVGAAIAQISGETDRVFSLIDGRTRESALAEAEAEAREKAIAAGAIAETLEVIEREDMPLAYLPGNATRIHVKVVGEMGANHGAAALEHHHHHH | not soluble
SFQGADSQAGKSGSRSMKPPGGESSDLFGSPEEGISSSKPNRMASNIFGPTEEPKNIPKRTNPPGGKGSGIFDESTPVQTRQRLNPPGGKTSDIFGSPVTATAPLAHPNKPKDHVLLCEGEDSKSDLKAATDSTPRGEQSDKGSSKEVEHAKIPEPTPTVDSHEPRLGPRPRSHNKVLNPPGGKSSLSFY | soluble
FRKIAQAYNLDLLVHHANAQLKQLVRRYRLKRGGSMLGLLVMDTEMGDELRSVHSLSGGETFLVSLALALGLASMASSTLRIESLFIDEGFGSLDPESLQLAMDALDGLQAQGRKVGVISHVQEMHERIPVQIRVRRQGNGLSTI | not soluble
MGSDKIHHHHHHMGKLSLAAKITHVPSMYLSELPGRHHGCRAEAIRGHQAIGERCRALGVDTIVVADTHWLVNAGYHVNCNGHFAGVYTSNELPHFIRDMRYEYPGNPALGHLIAASANERGIGTRAHEIDSLELEYGTLVPMRYMNADQRFKVVSIAGWCMWHALDESRRFGEALRHAIDASDANVAFLASGSLSHRFNDNGSPEEAIHMISREFYRQVDLRVVELWKQGDFATFCKMLPEYNAHCHGEGGMHDTAMLLGLLGWDRYDKPVEIVTDYFASSGTGQINAIFPLP | not soluble
MKNTGTSVKFGESSTQALIRAAYRQVFGRDLYEGQRLSVAEIQLENGDISVREFIKRLAKSELFLKLYWAPHYVCKAIEYMHRRLLGRPTYGRQEMNQYFDIASKQGFYAVVEAMIDSKEYSDAFGEDTVPYERYLTPGGLEHHHHHH | not soluble
EVDPFVELHVRAMGLAEVYGKMNGYMPMNYEYNVGRVETGIAKALGIKPSRDYEGIVAESQKLAAKAPPRPPVLCPGCPHSASFYAIRRVVDELGDAALPS | not soluble
MKVETCVYSGYKIHPGHGKRLVRTDGKVQIFLSGKALKGAKLRRNPRDIRWTVLYRIKNKKGTHGQEQVTRKKTKKSVQVVNRAVAGLSLDAILAKRNQTEDFRRQQREQAAKIAKDANKAVRAAKAAANKEKKASQPKTQQKTAKNVKTAAPRVGGKR | not soluble
MNTKFLGKTLVASALVLTTLGTGLHSSYLGLDTNKVVKTAKAEEKMTDGQLWKKVKDSLHDSDIILSNEYETINVTYLLSNGYSSSVSAPGNDDGGHLTQSIDFKGLKQIDLTKENVYDDFNKKLDAKNTWNSLTEKLKGLGLLQNGQKVSIYSSDSSSPVSGKVGEGVTSGGENTLTKRFINKITID | not soluble
VGSEVSDKRTCVSLTTQRLPVSRIKTYTITEGSLRAVIFITKRGLKVCADPQATWVRDVVRSMDRKSNTRNNMIQTKPTGTQQSTNTAVTLTG | soluble
MHPKRTPGTCFPGRGRPAPPRISVTVPEEVSQQEDLLVARSSELGGNSNTAVALTFNHALTAVRFVCGNDMREGTVKQVRLKNVYSRGTYNMGTQTWSGLDTPASFSQALDKVTTGTADEALTSEAQTFMMLPQRFPEGAQIEVLFTDDTHTGHTLIADIKGSEWPMGKTVTYKISSSSLNWTYTLDVTALADFTYTGGTQQYCVTSYRQNAQGEKEAAEWTAQYAEDGTTWTDTKPVWLTAFTASGTGGEFAQPCDATVEAQTGISNDLHENALKAATAKGSETTPYNLSNNTGGNTVENTANCYVVNAPGYYSLPLVYGNAIKNSATNASAYTSTVTGTNILNPFINHAGNGITDPYISGNGCTPAKAELVWQDAMNLVTDIKYNADSNGGNISFKVDRSSIRQGNAVIAIKDVSDAILWSWHVWVTDEDINNVIEITNHQNVKYNFMPVNLGQCDGNTITYEERSCKVKFIAGDQSKEITIKQLANVIATGSNAPFYQWGRKDPLYPSNGMGNTTKIWYDKEGIPSTANPMKGTFSAGNDCIKNCILNPNLMHNRYNGDYTYYNLWSADNKTTSANDNPVNKTIYDPCPVGFKLPASNAFTGFTTTGESVSSSTQVNGTWSSSEKGWYFYTNSEKTQSIFFPALGYRSYSTMRPGSIGTQGCFWSAHPVAKGNNYYLRTSSVDVQPTYMVDRGFGYALRPCQD | not soluble
MIFKVGDTVVYPHHGAALIEAIETRTIKGEQKEYLVLKVAQGDLTVRVPADNAEYVGVRDVVGQEGLDKVFQVLRAPHTEEPTNWSRRYKANLEKLASGDVNKVAEVVRDLWRREQDRGLSAGEKRMLAKARQILVGELALAEGTDSDKAETILDEVLAAAS | not soluble
TKDWDWNIEINLGHNKNKLKKLYKTKNAEGQFVEKPIIISDGTSIAGTAKRVLQPGYPCDTYYLKEWAGVNPENGAPQWYKTVENEDGTLSRQKTSNYSEADQVKCGSSSPDIFGGFSTVLRWKDIDLNAVFGYSVGGQIYNYSRQEYDSDGAYNDRNQMKLQKGWNRWEKPGDIATHPVASYSNTSKSNSSSSRYLEKNDYLKLRSLSIGYNLKLPQYYINNMRIFFTGENLFCVTNYSGVDPEIPASDGSVIGTALPSVYPTVRKFMFGLNLTF | not soluble
MENQVEVMTYAHLKEIMQALEANEAITEDTKVFIDTGWDSVQEVAPDAVSIEKVAKFTVADVLTNESFAGYSLEEKAEKMNAEGDLETAIIIRNLY | not soluble
MKILVALAVFFLVSTQLFAEEIGANDDLNYWSDWYDSDQIKEELPEPFEHLLQRIARRPKPQQFFGLMGKRDADSSIEKQVALLKALYGHGQISHKRHKTDSFVGLMGKRALNSVAYERSAMQNYERRRLEHHHHHH | not soluble
MNIGNITISVIIPVYNASVTLPHCLESLHKQTYRNLELLFVDDCSTDESLYILTSYAEQFAEIDFTIRILQHERNRGVAAARNTALKCATGDYIYYVDADDSIEPHTLECLVNEINHKGLDIVGHEWYLTFNSNARYMKQPAYTTSVEALRKMMGGVMRWNLWLFLVRRSLYVENDIRFTEGLNMGEDMMVMMKLFICAGKVGIVHRPFYHYRQSNPESLTKIYSQEHIIQVANNVYEVEKYVNASAYADSLIEFIPFLKLNIKLPLLITDDKSHYEQWLECFPEANCYVMNNKLLPLRTRIIQWMAVKRYFILLRLYYRTVFKLVYGIIYKLEHHHHHH | not soluble
MERCGWVSQDPLYIAYHDNEWGVPETDSKKLFEMICLEGQQAGLSWITVLKKRENYRACFHQFDPVKVAAMQEEDVERLVQDAGIIRHRGKIQAIIGNARAYLQMEQNGEPFVDFVWSFVNHQPQVTQATTLSEIPTSTSASDALSKALKKRGFKFVGTTICYSFMQACGLVNDHVVGCCCYPGNKP | not soluble
MGHHHHHHSHMAKQPTVLWAQRESLVYLTIEVDEAKIEELKGEGNKLHFQGSSKTDKYEATLEFFDEIDPASVKHTGSSTRVVEITVQKKTPAWWPRLLQNKGKVHWLKVDFGKWKDEDEDDEAEDAGAGIGGGMANGFDLNQYMSQMGGAGGADFGGLEDDEEDDDMPDLEDNEEEEGKNGTRA | soluble
MAHHHHHHMRSNGAAHIGNNTFLAVTRDVTDTAFLFSSSFSPAEQLVRLPLSRKTRFLPHASLACGEAERSEYAESAARAGPPTKDVDVKEAVASAAAASTPLFCHSAHASPDGHKIAFISNVRRHHYIIDISVLPAAVCELEMPEVVQSVCWHTVAHHALCVLFISGDLTIYDTDQSYLGVIVPLYRRIALRPVIERRLADAEAAVHPSPSIPSTAPGTISPAKGATALDKEEVQSTRVKALAGKVSTTRLPPARQAHATTAEVAGFRSLVLHSGGGAIVAGSDIAHSPSYAVAERIDHDEMVPVSSADEVGAEGAASCPPIPKPVMLPTSQLDLVDMYALPPTESIPVILLLSSSGDVYAVHLGDDCLPVVATAAATDDGRVRTREEEVLRRAEVAAAPLSVEVYHLISGDSTGAAGDEAVAVGGCLVDEDAGTHAVFFLTANGLVKGAWVSKPDLLARHRVAHVRAVGSPNISFTLHLSGSLGARASLAPAVPSITHSVSMTLSQNVCVVRSGVAGETAFVMAFPRWDRRRQGWACWRPACADAREREREAAALPLLSTDAAPPSPVALRLPYDTRDSSIAVGCTELLLVPEVSTMDGLCERGSILVISLAAVLRSALYARCGKLGLHPSAGAGATSRLRDPHPAVLDLLNAVPECHRCWLRGVPEAEMSAATLNLVRRIEQLSGDVNRREMVQAQRRRRLVARVANLEGRVAEMDGMLAEWRQIILDGIVHRRGGDAFRTANARLRKVSTMLNELEQQL | not soluble
MNKVLINDTTLRDGEQAAGVVFTLEEKVAIAKFLDTIGVPELEVGIPAMGEEEMRAICAISNLGLKANLLAWNRAVISDIKASVACGMERVHIAIPVSGIQIAAKFHGQWRVSLQRLKDCISFAVDQGLWVAVGGEDSSRADENFLLDVALYAQEWGASRFRFCDTVGVLDPFTTYGKVKLLVSALTIPVEVHTHNDFGMATANALAGIKAGASSVNTTVIGLGERAGNAALEEVVMAIKRIYGVDMGIDTPRLLELSQLVAAASGANVPPWKAIVGENTFAHESGIHAHGVLQNPDTYEPFAPEEVGWERRLVVGKHSGRHSVSNLLEQHGIFLNPEETQSVLDAVRQQSIKKKRSLTTEELLNLVKEQR | not soluble
MSNRVVIDHIGASGHGISNISHDSLSVPFTLPGEVAIVALRGKYGKLIALEKKSSERIDAICQHFENCGGCVLQHWHADAYRSWKRQLVIDALKRYGIDVFVSPLIEGGYQNRRRITLTALATQKGHIVGFNRYLSHDVIALEECPVTRLEIMSKLNSIKLLCALVGNHTKRFQVTVTSVENGLDVAFNGCVVRDEHIRQQMIHTALAYGMTRLSVEGEILVEREKPLVYFGDVCVEFPAGGFLQATFEAENIMGNIILAYLEKAKNAVDLFSGLGTFTLRMAKKMNVHAVENNETALANLDRAARFATGLKTITCERRDLFRRPLSAKELSCFECVVFDPPRAGAQEQVRELAKTTIPRVVTISCNPVTFARDLSLLVAGGYTIEKIIPIDQFLWSPHVEIVALLSKRKIKANWKL | not soluble
